# Biological target: Taliglucerase alfa (recombinant GCase) (human) (UniProt P04062)
# Test: AUC
substance,measurement,value
Taliglucerase alfa (recombinant GCase) (from UniProt P04062 40-536) (enzyme),population of the dimer species,47%
same,stoichiometry N,2
